Laboratory results as given in article PMC3020915.
“And” between values parts separate entries of the source, which are not always exact repeats. Equal values may be shown once.

B1: MBP-Nt (mDia2 N-terminus, 1-528) (domain or fragment)
chain: MERHRARALGRDSKSSRRKGLQSAPPAGPYEPGEKRPKLHLNIRTLTDDMLDKFASIRIPGSKKERPPLPHLKTVSGISDSSSLSSETMENNPKALPESEVLKLFEKMMEDMNLNEDKKAPLREKDFGIKKEMVMQYINTASKTGSLRSSRQISPQEFLHELKMGYTDERLFTYLESLRVSLTSHPVSWVQSFGHEGLGLLLDILEKLINGQIQEKVVKKTQHKVIQCLRALMNTQYGLERIMSDKRSLSLLAKAMDPRQPAMMADVVKLLSAVCIVGEESILEEVLEALTSAGEERKIDRFFSIVEGLRHNSVNLQVACMQLINALVTSPDDLDFRLHLRNEFMRCGLKEILPNLKGIKNDGLDIQLKVFDEHKEEDLSEFFHRLEDIRAELDEASDVYSMLWDTVKETRAEGHFLSILQHLLLIRNDRFIREQYFKLIDECVSQIVLHRDGTDPDFTYRKRLDLDLSQFVDVCIDQAKLDEWEEKASEHCKKFEKECTDHQETQAQLQKREAKINELQAELQAFKS
B2: MBP-NtΔBD (mDia2 91-528) (domain or fragment)
chain: NNPKALPESEVLKLFEKMMEDMNLNEDKKAPLREKDFGIKKEMVMQYINTASKTGSLRSSRQISPQEFLHELKMGYTDERLFTYLESLRVSLTSHPVSWVQSFGHEGLGLLLDILEKLINGQIQEKVVKKTQHKVIQCLRALMNTQYGLERIMSDKRSLSLLAKAMDPRQPAMMADVVKLLSAVCIVGEESILEEVLEALTSAGEERKIDRFFSIVEGLRHNSVNLQVACMQLINALVTSPDDLDFRLHLRNEFMRCGLKEILPNLKGIKNDGLDIQLKVFDEHKEEDLSEFFHRLEDIRAELDEASDVYSMLWDTVKETRAEGHFLSILQHLLLIRNDRFIREQYFKLIDECVSQIVLHRDGTDPDFTYRKRLDLDLSQFVDVCIDQAKLDEWEEKASEHCKKFEKECTDHQETQAQLQKREAKINELQAELQAFKS

Molecular target: GST-Rif Q75L (UniProt Q9HBH0)
Assay: pull-down

| Binder | fold increase of band intensity over the GST control |
| --- | --- |
| B1 | 2.4 fold and 3.8 fold |
| B2 | 6 fold and 9.2 fold |
